Results reported in article doi:10.1101/2025.10.21.683800 (bioRxiv, 2025).
Where two headings read alike, the source gives them in different places.

Experiments:
[1] = molecular target: T1, MBP-FLAG-PPP1CC-His (human, UniProt P36873 1-323); assay: ITC
[2] = molecular target: T1, MBP-FLAG-PPP1CC-His; assay: ITC; remark: listed apart in the source

T1 sequence (P36873 whole entry): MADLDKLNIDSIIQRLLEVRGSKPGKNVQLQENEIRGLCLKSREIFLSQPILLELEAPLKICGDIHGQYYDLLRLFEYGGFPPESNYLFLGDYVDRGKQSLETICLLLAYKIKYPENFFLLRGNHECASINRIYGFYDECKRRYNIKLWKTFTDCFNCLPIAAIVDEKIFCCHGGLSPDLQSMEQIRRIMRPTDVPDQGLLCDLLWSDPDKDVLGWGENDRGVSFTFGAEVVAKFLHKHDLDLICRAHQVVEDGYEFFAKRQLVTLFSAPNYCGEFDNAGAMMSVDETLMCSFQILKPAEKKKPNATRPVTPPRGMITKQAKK

Kd [1]: 3590 nM | Kd [2]: 1130 nM
B1: recombinant PPP1R2 (natural protein)
chain: MAASTASHRPIKGILKNKTSTTSSMVASAEQPRGNVDEELSKKSQKWDEMNILATYHPADKDYGLMKIDEPSTPYHSMMGDDEDACSDTEATEAMAPDILARKLAAAEGLEPKYRIQEQESSGEEDSDLSPEEREKKRQFEMKRKLHYNEGLNIKLARQLISKDLHDDDEDEEMLETADGESMNTEESNQGSTPSDQQQNKLRSS
